Among the data in a protein production outcome set (Wang et al. 2014) are protein production values, retold here.

This data set in a line: label from the status in PepcDB records.
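Also: failed if final PepcDB status was selected cloned or expressed and not failed if soluble or beyond.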

Turning to “MKRYQGRIIATVLAMTFIMFWNFLFYGVLGNKINWTVDLLFTLVTLISVWWLTLYIDESNQLVYKLKESEKKYKELSSETNRIMDNLQEIVFQTDRIGYITFLNQAWTTLTGYSVEESLGTMYNDYFDHEERISNHLIAQLKNKEPEGRIEVLYHRKDGSKFWGEVHYKLYYKNGQFTGSLGTLTDVTERKKAEMELFKSNQRLAMQSQKLAMAGQLAAGIAHEVRNPLTSVNGFLQLMKAEYPDRKDYFDIIFSEIKRIDSVLGELLVLAKPHQVQFKKIKINSVLQQVATLLETNAVLSHIKIEKAFQHGEEWEINGDENQIKQVFINLIKNGIEAMPDGGKITISSKAEGDCVKISIKDEGGGISQADLAKLGEPFFSTKEEGTGLGLTICLNIIGAHNGEMKIDSKLGEGSTFHILLPVDKGAASEENDIQQGCCSRATIK”, the protein production result was “failed”. “MKSADQLMSDIQLSLQALFQKIQPEMLESMEKQGVTPAQLFVLASLKKHGSLKVSEIAERMEVKPSAVTLMADRLEQKNLIARTHNTKDRRVIDLSLTDEGDIKFEEVLAGRKAIMARYLSFLTEEEMLQAAHITAKLAQAAETDEKQNMKRGNG”: the protein production result is recorded as “not failed”. For “MKSALSDFILGKKGIYGILHIIILLMSLFLVISISIDTFKGIPFYTQSSYMKIQLWICIWFLFDFVLEFFLAKHKWRYIRTHFIFLLVAIPYQNIIAYYGWTFSPEVTYLLRFIPLLRGGYALAIVVGWLTYNRASSLFVSYLTMLLATVYFASLAFFVLEHKVNPLVTDYGDALWWAFMDVTTVGSNIIAMTTTGRVLSVLLAALGMMMFPIFTVYITNLIQQSNQKKKQYYAEEEEKTASA” the value was “failed”; for “MKSDYELSLRDYIAIIKDRALVLGVSAAVILAATVAVALMVPPIYQSTGTILVESQQISPELVSTNNTSFADERIEVIRQRVMTRDNLLRIIGKYDLFADKRFSESDKIDQMRNAIVVETLTTYVRGRGEATVAFNVSFEHKQPQVAKEVADELVTLFLNENLKQRTERANETTEFLTQEANKLGAELASLENQLADFKQAHANALPEHQTLRMNMLSRAELEFREVDRDYKAAQEELRYLELELSAANAGLATKVAEGTRPTRADLPEDLPSLKAEYAQLLTRYKDAHPDVVAVKRKIQALEASGGRTAAVSTVSLDAARVRAKMSAAQVRIASLAEQKRELTRKMEGYEAEILEAPQVERGLVTLMRDHDNARKKYEEIRAKEMGAKITESLEQENKAERFVLLEPPLLPEKPIKPNRKKIAALGLVLAPAGGGALVMLLEMLNQRVRGVGALESLLGKRVLVALPYIDTRADVARRKRWRNRLILAALALAAIMIGLVHVFYMPLDVLL”, “failed”; for “MKSENVNKRDEYQRVFSCFDKSHQGKVSVSTIERCVDAIKSGKRAVVDQEDTTNPNPEESTDDKSLELEDFVKLVEEGEEADKEKDLKEAFKLYEESEGITPKSLKRMLSLLGESKSLKDCEVMISQFDINRDGIINFDEFRAMMQ”, “failed”.

Turning to “MKSKGRNRLLSLIICICIAFAFSSCVKNDLPYPVVRLSITGFEVNGQIGSAVINNEERTVTVDLLDSVDLKKVIVTRFDYSEEANTDLKVNTTIDLSSPKEVVLSLYQDYRWKIIANQTVERVFSVKNQVGGAVIDEKARQAIVYVNKNTMLNKITVKDLKLGPISSTVSPDFITLKDFTQEQKVNVTFKGKTEEWSLYAFITDKVVFTNSADGWTNVAWLYGEGQEDVVNGFEIREASSEEWTRVDQDIVVQNGVNFYVCVPHLKADTEYVCRALVDGTEDRGEEITFRTTAAIPLTGGTFDNWNQSGKVWNPWGSNETPFWDTGNQGATTLGDSNSVPTEDIWSGKTTGMAAKLESKFVGVGSAGKLAAGNLFVGKYVATDGTNGILNFGQSFSAYPTHLKGYYKYQPGVIDNSSIEYNYLKGRTDTCSIYIAIGDWDSPIEIRTKPSNRKLFDKNDKHVIAYAEFTSGTPVAVYKEFDLKLEYRATNRKPTYIVLVCSASKYGDFFTGASGSVLYVDEFSLEYDYDN”, the protein production entry is reported as “failed”. For the sequence “MKSLTPHLLLCSFFTSIAPALGEGFRNKRVAFIPTAAAHEEYTAYVDSARSSWKELGSNITDVDIARMPLRTATEALEQAEIIYLSGGNSFYLLDCLRSTEIDQIIRGRLAEGAILVGESAGAIVCSPNIAYIQPMDRVPDNYSQADYTGLNLVDFFPVPHYLAPPFVKSSKEVVAQHASLPLELMNNAEAVIVEGPQRTKISSEHQ”, the protein production entry is “failed”. As to “MKSPFYRCQNTTSVEKGNSAVMGGVLFSTGLLGNLLALGLLARSGLGWCSRRPLRPLPSVFYMLVCGLTVTDLLGKCLLSPVVLAAYAQNRSLRVLAPALDNSLCQAFAFFMSFFGLSSTLQLLAMALECWLSLGHPFFYRRHITLRLGALVAPVVSAFSLAFCALPFMGFGKFVQYCPGTWCFIQMVHEEGSLSVLGYSVLYSSLMALLVLATVLCNLGAMRNLYAMHRRLQRHPRSCTRDCAEPRADGREASPQPLEELDHLLLLALMTVLFTMCSLPVIYRAYYGAFKDVKEKNRTSEEAEDLRALRFLSVISIVDPWIFIIFRSPVFRIFFHKIFIRPLRYRSRCSNSTNMESSL”, the protein production result is on record as “failed”. With “MKSQFLLSVKEHMLTRYYANKTIESYLFWIKRFIVFHQFAHPSKLSEDDVIRFLSHLAIDEKVAVKTQALALNAISFLYRDFFKTPLSLDMRFQKSLTEKKLPVVLTRDEVRRFV”, the protein production result is on record as “failed”. On to “MKTAELIFVPLPETGHLLSTIEFGKRLLNLDRRISMITILSMNLPYAPHADASLASLTASEPGIRIISLPEIHDPPPIKLLDTSSETYILDFIHKNIPCLRKTIQDLVSSSSSSGGGSSHVAGLILDFFCVGLIDIGREVNLPSYIFMTSNFGFLGVLQYLPERQRLTPSEFDESSGEEELHIPAFVNRVPAKVLPPGVFDKLSYGSLVKIGERLHEAKGILVNSFTQVEPYAAEHFSQGRDYPHVYPVGPVLNLTGRTNPGLASAQYKEMMKWLDEQPDSSVLFLCFGSMGVFPAPQITEIAHALELIGCRFIWAIRTNMAGDGDPQEPLPEGFVDRTMGRGIVCSWAPQVDILAHKATGGFVSHCGWNSVQESLWYGVPIATWPMYAEQQLNAFEMVKELGLAVEIRLDYVADGDRVTLEIVSADEIATAVRSLMDSDNPVRKKVIEKSSVARKAVGDGGSSTVATCNFIKDILGDHF”, for which the protein production result is recorded as “failed”. As to “MKTDIILAGVGGQGILSIAAAIGSAALTNNLYLKQAETHGMSQRGGDVQSFLRLSDAPIYSDLIPIGGADLILSVEPMEALRYLPYLKPDGYVVTNTVPFINIPNYPETTSVISKIESLPHHVLIDADSIARDEVGNVRASNFVMLGAASPFIEIPFDYLAGGIEAIFSRKGQEVVDMNLKALNAGREFALRYAAGK”, the protein production result was “not failed”. Turning to “MKTFNESNGTNANVLMVGLTLVQAAAAKGAVCLDGSVPGYHLCRGYGSGANNWIIQLQGGAWCDSIQNCQSRKGSGYGSSTLMEKELAFLGLLSNKAAENPDFYNWNKVKVRYCDGASFDGDSENKAAQLQYRGKRIFLAVMEDLMEKGMRQAKQALLSGCSSGGLSAILRCDDFNNLFPPTTTVKCMSDAGFFLDAVDVSGGHSLRRMYSGVVNTQGLQNTLPPTCTSHIKPFLCFFPQYIINQVKTPLFILNSGFDSWQIGNSLAPPSADKSGSWHNCSFSFRCTASQMHFLEGFKMSMLDALKTFSKFSKNGVLITSGWAHCQAERQDTWFPGYSGAGKAKGIAVAVGDWYFERTKQNSS”, the protein production entry is reported as “failed”. Consider “MKTIAVLLTALLLATGCGNKESTGETASDEPEIVMMDESTSVGELPSILKEGLSNKEQDELKKQIMPILDDGLTPEQRFLNLRKDAEAGNAEAQNSLGSMYFSGEAISRDAQGKVKDKDPETAAGWFFRAAEQGHAGAQFNLGLLYFSGEGVTRDTAKAVELFTKSAEQGNIDAQNNLGVIYLMGEGVKQNTDKAIEWFEKAAEQGNEEAIKNLEAVRASQQDSKEAADKQK”, for which the protein production result is “failed”.

For “MKTIRSIGRFAVLAAMAALFAGCAGQQVKSEQRFFWPPLPERPRIEWLNAYSSQNDFPKSATEKFLTTIIGEEEGISLSKPITVRSDGRGKVYVGDPGAPGVYVFDFVNNIMRPFGKAEAEARIEQPVGIAIDENGRIYVSDTKKAAIMVFHQDETPAALINLKGMVEKIGDIAYDRIGKHLLALDVRGHKVLVLSLRGELLSSFGNRGTKPGEFNFPSALTVNNKGEIIVADAMNARIQIFSSDGKFLRMFGQRGDSPGTLQLIKGVAVDSDDNIYVTDGKGHKFEIFSTTGDYLLTVGGAFSALTTGKTAPGGFVIPQGIDIDKDNMIYVVDQLNRRFQVFRYISDSYLKANPIPGYTPSP”, the protein production entry was “failed”.
